According to article doi:10.1101/2024.12.11.628028 (bioRxiv, 2024):

Molecular target: the molecule itself
Assay: crystal structure

B1: Nicotinamide phosphoribosyltransferase (NAMPT), human, with N terminal His-tag (enzyme)
chain: MNPAAEAEFNILLATDSYKVTHYKQYPPNTSKVYSYFECREKKTENSKLRKVKYEETVFYGLQYILNKYLKGKVVTKEKIQEAKDVYKEHFQDDVFNEKGWNYILEKYDGHLPIEIKAVPEGFVIPRGNVLFTVENTDPECYWLTNWIETILVQSWYPITVATNSREQKKILAKYLLETSGNLDGLEYKLHDFGYRGVSSQETAGIGASAHLVNFKGTDTVAGLALIKKYYGTKDPVPGYSVPAAEHSTITAWGKDHEKDAFEHIVTQFSSVPVSVVSDSYDIYNACEKIWGEDLRHLIVSRSTQAPLIIRPDSGNPLDTVLKVLEILGKKFPVTENSKGYKLLPPYLRVIQGDGVDINTLQEIVEGMKQKMWSIENIAFGSGGGLLQKLTRDLLNCSFKCSYVVTNGLGINVFKDPVADPNKRSKKGRLSLHRTPAGNFVTLEEGKGDLEEYGQDLLHTVFKNGKVTKSYSFDEIRKNAQLNIELEAAHH
Q: Does B1 bind?
A: binds
